This experiment concerns the target recombinant human protective protein/cathepsin A (rhPPCA), 54-kDa precursor form (human). Briefly: SEC.

For the substance “recombinant human protective protein/cathepsin A (rhPPCA), 54-kDa precursor form (enzyme)”, the stoichiometry N was 2.

Broadly, the stoichiometry N is the number of molecules, sites or subunits per partner or assembly.
